This is an account of results in patent US20160355605A1 (published 2016).

Assay [1] has as its target T1, Muc1 mucin bearing the CA6 sialoglycotope (DS6 antigen), as expressed by CA6-positive human tumour cell lines (human, UniProt P15941 24-1255, CA6 epitope: sialic acid-dependent glycotope on sialylated O-linked carbohydrate chains; sites not stated).
T1 construct: whole, on cells; Flow cytometry used whole cells; dot blots, immunoprecipitation and western blots used cell lysates; also called CA6 antigen; >250 kDa band
Nature of the assay: flow cytometry competition; competitor 2 nM biotin-muDS6, streptavidin-DTAF (called apparent EC50 in paragraph 357).

Assay [2] concerns the target T1, Muc1 mucin bearing the CA6 …. Description: cell-based or functional assay.
The target is the same in assay [3]. Nature of the assay: flow cytometry, direct binding to KB cells; apparent Kd. The method, then:
In the first set of experiments direct binding to a CA6-expressing cell line, KB, was measured.

B1: murine DS6 anti-CA6 monoclonal antibody (antibody, V domains shown)
VH: QAYLQQSGAELVRSGASVKMSCKASGYTFTSYNMHWVKQTPGQGLEWIGYIYPGNGATNYNQKFKGKATLTADPSSSTAYMQISSLTSEDSAVYFCARGDSVPFAYWGQGTLVTVSA
VL: QIVLTQSPAIMSASPGEKVTITCSAHSSVSFMHWFQQKPGTSPKLWIYSTSSLASGVPARFGGSGSGTSYSLTISRMEAEDAATYYCQQRSSFPLTFGAGTKLELKR
notes: Murine monoclonal IgG purified from the hybridoma (ATCC PTA-4449); also called muDS6; DS6 antibody
B1: in assay [1], the IC50 turned out to be 1.9 nM.

B2: chimeric DS6 antibody (antibody, V domains shown)
VH: QAYLQQSGAELVRSGASVKMSCKASGYTFTSYNMHWVKQTPGQGLEWIGYIYPGNGATNYNQKFKGKATLTADPSSSTAYMQISSLTSEDSAVYFCARGDSVPFAYWGQGTLVTVSA
VL: QIVLTQSPAIMSASPGEKVTITCSAHSSVSFMHWFQQKPGTSPKLWIYSTSSLASGVPARFGGSGSGTSYSLTISRMEAEDAATYYCQQRSSFPLTFGAGTKLELKR
notes: also called chDS6
Regarding B2, the IC50 in assay [1] worked out at 1.7 nM.

B3: huDS6v1.01-SPDB-DM4 conjugate (antibody, human IgG1, V domains shown)
VH: QAQLVQSGAEVVKPGASVKMSCKASGYTFTSYNMHWVKQTPGQGLEWIGYIYPGNGATNYNQKFQGKATLTADTSSSTAYMQISSLTSEDSAVYFCARGDSVPFAYWGQGTLVTVSA
VL: EIVLTQSPATMSASPGERVTITCSAHSSVSFMHWFQQKPGTSPKLWIYSTSSLASGVPARFGGSGSGTSYSLTISSMEAEDAATYYCQQRSSFPLTFGAGTKLELKR
modifications: DM4 maytansinoid via SPDB disulfide linker, 3.2 DM4 per antibody; sites not stated
For B3, in assay [2], the “in vitro cytotoxicity (MTT), WISH cells, IC50” value was found to be 0.44 nM.

B4: humanized DS6 antibody version 1.21 (antibody, V domains shown)
VH: QAQLVQSGAEVVKPGASVKMSCKASGYTFTSYNMHWVKQTPGQGLEWIGYIYPGNGATNYNQKFQGKATLTADPSSSTAYMQISSLTSEDSAVYFCARGDSVPFAYWGQGTLVTVSA
VL: EIVLTQSPATMSASPGERVTITCSAHSSVSFMHWFQQKPGTSPKLWIYSTSSLASGVPARFGGSGSGTSYSLTISSMEAEDAATYYCQQRSSFPLTFGAGTKLELKR
notes: also called huDS6v1.21; huDS6 v1.21
In the case of B4, in assay [3], the Kd was found to be 0.85 nM. Further, the IC50 in assay [1] was found to be 1.9 nM.

B5: humanized DS6 antibody version 1.01 (antibody, V domains shown)
VH: QAQLVQSGAEVVKPGASVKMSCKASGYTFTSYNMHWVKQTPGQGLEWIGYIYPGNGATNYNQKFQGKATLTADTSSSTAYMQISSLTSEDSAVYFCARGDSVPFAYWGQGTLVTVSA
VL: EIVLTQSPATMSASPGERVTITCSAHSSVSFMHWFQQKPGTSPKLWIYSTSSLASGVPARFGGSGSGTSYSLTISSMEAEDAATYYCQQRSSFPLTFGAGTKLELKR
notes: also called huDS6v1.01; huDS6 v1.01
In the case of B5, in assay [3], the Kd is 0.82 nM. For the same molecule, the IC50 in assay [1] amounted to 3 nM.
